Data published in PMC6158738.

T1: PfuHAN-D3 (Pyrococcus furiosus, UniProt Q8U3Q7 201-740)
T1 sequence: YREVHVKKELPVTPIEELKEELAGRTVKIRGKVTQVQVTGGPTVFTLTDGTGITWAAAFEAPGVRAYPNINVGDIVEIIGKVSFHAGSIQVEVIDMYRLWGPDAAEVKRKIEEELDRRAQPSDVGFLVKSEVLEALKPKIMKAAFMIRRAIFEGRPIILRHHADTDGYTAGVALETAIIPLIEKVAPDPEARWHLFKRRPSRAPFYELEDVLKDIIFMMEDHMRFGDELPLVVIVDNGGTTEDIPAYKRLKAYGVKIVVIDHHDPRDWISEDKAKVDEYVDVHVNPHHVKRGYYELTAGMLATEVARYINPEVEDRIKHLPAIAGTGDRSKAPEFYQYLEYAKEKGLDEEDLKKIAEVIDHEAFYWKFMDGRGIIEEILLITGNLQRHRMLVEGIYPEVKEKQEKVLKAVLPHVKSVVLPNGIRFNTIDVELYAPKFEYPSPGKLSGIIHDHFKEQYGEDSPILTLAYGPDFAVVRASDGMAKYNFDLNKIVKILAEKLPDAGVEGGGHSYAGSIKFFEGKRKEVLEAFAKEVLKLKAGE

T2: PfuHAN-D5 (Pyrococcus furiosus, UniProt Q8U3Q7 50-740)
T2 sequence: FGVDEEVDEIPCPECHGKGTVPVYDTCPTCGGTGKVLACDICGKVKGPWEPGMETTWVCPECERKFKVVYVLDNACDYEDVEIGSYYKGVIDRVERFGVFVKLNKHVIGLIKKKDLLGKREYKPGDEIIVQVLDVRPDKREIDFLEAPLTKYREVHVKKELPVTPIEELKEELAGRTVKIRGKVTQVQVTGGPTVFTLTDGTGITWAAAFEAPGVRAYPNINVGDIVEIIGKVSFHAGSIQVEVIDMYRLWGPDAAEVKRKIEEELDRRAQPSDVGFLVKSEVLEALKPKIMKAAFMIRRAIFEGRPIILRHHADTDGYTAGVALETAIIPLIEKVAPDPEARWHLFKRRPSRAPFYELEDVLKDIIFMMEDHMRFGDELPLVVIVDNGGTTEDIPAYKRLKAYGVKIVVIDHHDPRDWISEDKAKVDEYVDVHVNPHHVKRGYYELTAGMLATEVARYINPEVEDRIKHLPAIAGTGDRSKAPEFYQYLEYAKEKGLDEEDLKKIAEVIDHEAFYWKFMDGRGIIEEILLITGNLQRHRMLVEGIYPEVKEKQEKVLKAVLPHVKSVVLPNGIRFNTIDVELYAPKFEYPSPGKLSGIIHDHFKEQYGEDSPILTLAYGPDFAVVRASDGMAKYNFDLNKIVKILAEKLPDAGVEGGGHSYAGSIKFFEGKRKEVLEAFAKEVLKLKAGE

T3: PfuHAN-D4 (Pyrococcus furiosus, UniProt Q8U3Q7 112-740)
T3 sequence: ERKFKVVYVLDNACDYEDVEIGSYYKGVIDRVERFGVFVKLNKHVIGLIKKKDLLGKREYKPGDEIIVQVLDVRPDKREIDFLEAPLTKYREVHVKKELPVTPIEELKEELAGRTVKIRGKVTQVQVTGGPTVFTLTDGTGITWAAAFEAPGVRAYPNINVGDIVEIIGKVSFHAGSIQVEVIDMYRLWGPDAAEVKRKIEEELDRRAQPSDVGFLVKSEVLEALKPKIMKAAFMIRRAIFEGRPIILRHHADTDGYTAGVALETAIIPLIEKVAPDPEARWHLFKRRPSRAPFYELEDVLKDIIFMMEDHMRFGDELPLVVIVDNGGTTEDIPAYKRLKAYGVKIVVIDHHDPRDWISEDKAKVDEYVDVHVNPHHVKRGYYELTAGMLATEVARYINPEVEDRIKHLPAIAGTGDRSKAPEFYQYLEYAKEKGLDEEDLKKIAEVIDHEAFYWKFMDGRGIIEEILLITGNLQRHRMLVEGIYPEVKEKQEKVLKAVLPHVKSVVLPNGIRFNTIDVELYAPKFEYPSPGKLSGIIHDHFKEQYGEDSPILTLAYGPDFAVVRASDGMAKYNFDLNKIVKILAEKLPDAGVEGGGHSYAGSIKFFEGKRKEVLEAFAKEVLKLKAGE

T4: PfuHAN-D1 (Pyrococcus furiosus, UniProt Q8U3Q7 305-740)
T4 sequence: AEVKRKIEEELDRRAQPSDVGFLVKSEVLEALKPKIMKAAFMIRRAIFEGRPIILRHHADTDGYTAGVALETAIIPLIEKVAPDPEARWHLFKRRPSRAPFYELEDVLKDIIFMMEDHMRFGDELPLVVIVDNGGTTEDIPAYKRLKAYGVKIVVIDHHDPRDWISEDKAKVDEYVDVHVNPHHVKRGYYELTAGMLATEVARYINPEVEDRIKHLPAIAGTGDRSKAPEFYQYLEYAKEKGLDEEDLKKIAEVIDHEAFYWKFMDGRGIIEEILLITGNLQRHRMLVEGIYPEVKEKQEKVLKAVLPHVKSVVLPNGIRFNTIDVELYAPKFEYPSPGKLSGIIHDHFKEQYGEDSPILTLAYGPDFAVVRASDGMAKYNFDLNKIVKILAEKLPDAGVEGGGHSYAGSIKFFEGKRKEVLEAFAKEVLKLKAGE

T5: PfuHAN-D2 (Pyrococcus furiosus, UniProt Q8U3Q7 227-740)
T5 sequence: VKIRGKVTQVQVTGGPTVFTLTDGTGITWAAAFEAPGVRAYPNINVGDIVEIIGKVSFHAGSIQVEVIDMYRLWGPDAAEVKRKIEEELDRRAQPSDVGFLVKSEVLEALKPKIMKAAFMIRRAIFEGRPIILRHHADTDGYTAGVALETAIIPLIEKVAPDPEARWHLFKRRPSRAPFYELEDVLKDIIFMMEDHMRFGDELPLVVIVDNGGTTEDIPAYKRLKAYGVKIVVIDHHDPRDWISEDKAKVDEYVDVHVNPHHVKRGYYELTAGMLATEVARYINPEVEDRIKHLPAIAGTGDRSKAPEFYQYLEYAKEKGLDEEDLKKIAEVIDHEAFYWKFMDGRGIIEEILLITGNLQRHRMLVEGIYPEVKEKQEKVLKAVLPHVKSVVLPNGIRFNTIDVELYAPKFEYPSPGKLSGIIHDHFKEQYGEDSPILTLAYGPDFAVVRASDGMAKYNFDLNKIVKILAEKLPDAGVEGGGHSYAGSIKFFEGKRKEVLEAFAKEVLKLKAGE

T6: PfuHAN wt (Pyrococcus furiosus, UniProt Q8U3Q7 1-740)
T6 sequence: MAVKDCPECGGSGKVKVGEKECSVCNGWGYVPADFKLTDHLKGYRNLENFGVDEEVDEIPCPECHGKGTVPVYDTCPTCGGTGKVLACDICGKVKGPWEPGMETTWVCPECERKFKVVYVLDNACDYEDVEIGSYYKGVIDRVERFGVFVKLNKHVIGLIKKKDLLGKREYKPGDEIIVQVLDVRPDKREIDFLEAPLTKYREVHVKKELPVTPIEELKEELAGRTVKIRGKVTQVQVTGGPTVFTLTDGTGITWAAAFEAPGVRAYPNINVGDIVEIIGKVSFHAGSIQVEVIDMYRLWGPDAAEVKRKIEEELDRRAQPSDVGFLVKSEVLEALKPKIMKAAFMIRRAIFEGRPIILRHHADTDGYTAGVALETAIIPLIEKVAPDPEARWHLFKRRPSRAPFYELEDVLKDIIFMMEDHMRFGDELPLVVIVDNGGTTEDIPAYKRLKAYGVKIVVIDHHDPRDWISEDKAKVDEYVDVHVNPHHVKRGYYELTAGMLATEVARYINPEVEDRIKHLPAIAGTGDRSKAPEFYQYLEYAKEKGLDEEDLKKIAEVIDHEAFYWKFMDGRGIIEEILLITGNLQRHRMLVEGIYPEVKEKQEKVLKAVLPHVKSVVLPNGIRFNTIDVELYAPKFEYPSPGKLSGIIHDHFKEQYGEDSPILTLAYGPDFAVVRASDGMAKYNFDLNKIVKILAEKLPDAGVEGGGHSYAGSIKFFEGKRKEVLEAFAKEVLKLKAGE


How the values were obtained:
[1] = target: PfuHAN_DND E562A (Pyrococcus furiosus); assay: SEC
PfuHAN-D3 = target: T1, PfuHAN-D3; assay: EMSA
PfuHAN-D5 = target: T2, PfuHAN-D5; assay: EMSA
PfuHAN-D4 = target: T3, PfuHAN-D4; assay: EMSA
PfuHAN-D1 = target: T4, PfuHAN-D1; assay: EMSA
PfuHAN-D2 = target: T5, PfuHAN-D2; assay: EMSA
PfuHAN wt = target: T6, PfuHAN wt; assay: MST

| stoichiometry N [1] | Molecule | binding result (PfuHAN-D3) | binding result (PfuHAN-D5) | binding result (PfuHAN-D4) | binding result (PfuHAN-D1) | binding result (PfuHAN-D2) | binding result (PfuHAN wt) |
| --- | --- | --- | --- | --- | --- | --- | --- |
| 3 | PfuHAN_DND E562A (domain or fragment) |  |  |  |  |  |  |
|  | AGGCTGCGGTCGAGTTGACAGCACTGCACGCATTACTGAGCT (ssDNA) [42-nt ssDNA] | no binding | no binding | no binding | no binding | no binding | no binding |
